Measured values as given in the NTF2 design screens of Basanta et al. (2020).

Experiment: protease stability score; higher = more stable; yeast display proteolysis, trypsin and chymotrypsin;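 also: relative to predicted unfolded state with 0 unfolded-like and 1 meaning tenfold more protease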

Sequence	protease stability score
SEEEKHLRELSEHFIKLFLTGNEEELVNNADPHVQLHIDINGKKYHYHGREEFRKWAEERSEKIKNAKIILDHVEIQGEKLIIDTTWHFDGRNFRSKIKIKVFDGVLKEIHIEIR	2.1
SETEEITERWLRLALEALRTGDFEFISRLADPHVRSEYNGVEFIGREEMVRFEEERLERLGATPSDLITRDVEFQGNKVIIHQEMEMRVGDKRHTNETTIFSHKFDGRWILHSIKFH	0.984
DEHTEHSKKLADLIMEWLKTGNEEILRKRMDPNTKIHIEVDGREENTHGWEEFERWLKELGIKHFELKHVHIQGDKSFVDGTLEVNGQRRRIIFIFIVVDGRIQSIRVIVI	2.12
DEERHEALRVAKEFMHNFWTGNEELNRHLIDPNVRLTIEVGDKRIDRVGRESFSHTLHRWREHLRIEDLDETRIDVQGDKAVLHTIMHIKIGDKHITVEVDINILVVDGRLRHIRVIVR	2.01
SEEEHLLREILERIIHIYSTGDEQILKHLMDPHVKITVEVNGRRIIFHGMEQYIQWYRDLGFDHSKVKLRDHRIIGDKAHAVTELEIHFDGKRREEETREVIVVIDGRLTTWHTSVN	0.898
DREEKQAEEVATEIIRALLTGDEKWLLHLIDPNVRWIMDVNGKELTLHGWHELIKKFRDDFRHLGVERFHVHVKDWDIQGDKMHLRVTFHIDGKTFDYELIIIVINGRITSMEVREH	2
DEERELTEKLTRKLIHNWLTGDPEAIRRMLDPNVRVIINGQELHGRERFHEHMHHLLRHMRIDHIDIKDWKFQGEKFHIDLHVHGTIDGVHFIHRTESSVIIVNGKIHQMHVHEI	1.41
HEEEEEARRFSTLFNRAMLTGDEDELKEYADPHVRIDINGVILHGRERLREWLEKYLKEIRWHDFKIEHVDVQGDKVDIKVNVDGHINGRRTTRETEIRVEKIDGRWVIREIRFR	0.673
SKREDKWKHHVEVLIRLWQTGDEDTLKELFDPNVLLLVIYNGRNIHNHGRELAMHWLRYLLEHLGIDHYHIESSSVIGDKVEIKSRVYIGDKTYELDLEIRIIDGRLKSLNVNIE	0.8
DSEEKDQRKASELTMRLLKTGNEDLMSHFFDPDTKVTIGDKEYHGREVLSHLLWEEKERIKGMRFEIKDLHVRYIGDKIRVESHVVLEINGVTLDTELIFHAEKVDGRWLSRSFEVRIT	-0.023
EEIIDLMERLAYLWHHWLTTGNEEMLSKFLDPHARIVIGDKIYHGREKIHEELRRHLERFDHIEFRLRHTEVQGNKIHNHGELKLRIGNYTVHYETRFELQIYDGKIHEFQVKID	1.73
DEEEHLSKEAVRLYIESLHTGDEDLWRSLMDPNARLHINGREFHGMERVLRILREIRIKDTRIRDFHVVNGQVHNRMELEIKVGDKERSFDVELIAYKIDGRWITKSVIHH	1.29
DERKEHSIKVAKNIFNDILTGDEDRMKEMMDPDVKLHIGDKDVIGRENVIKFMIEEWNHIRFEDFKHKDVRVQGDKAILEGHINVEYGDKHRNVDSRYLVFVIDGRIKSIEIRLH	1.39
SEEEEEARDILKMLFTALDTGNEEYFLNLIDPNVRISVGNYTIVGREQWTEHMRRVKNMQIDDISIKDIKFQGELLRIHGHLVGRFDGQHSHFHVDIIFRKVNGQWHQKEIIIK	1.99
DELKRDADHAVELLHRVIHTGDEDTFVELIDPHVRLDFNGRELIGWEEVRKLMRDLGWEQIHYEIEDIKVYNGQVEIHSRVNINGRTHQSHYHIEKVNGRWILRHVEYE	1.37
DDEDRKLKHLIELLVHWFLTGDEDALKELADPNTKFDIGDKHYHGMEIVQEIWKRHLEEIRIQHVEIRHVEIQGNKTDITGELHGQIGDKHIRSEVRIHLNIINGRVRSMWFIIH	2.49
DEDRERSKKEFDTLVKSELTGDEDSYRRMADPDTRLVVGDKEYHGRSAMRYFLRQVDHMEHVIIRRVEYQGDYAHFDITVHGDINGRRDTVHFHLVMYKIDGRWVVHELIIK	1.32
DELERLAVETIHRFWHSLTTGNEKVLDELLDPNVRVHYNGKDIIGMEHFLKEISEIWRHVEDIKFTDNRVQGEKIRVHGHVDVKEEFDGRKIKIHTRVDYVVHKINGVWVVQSIKIH	1.05

Sequence	protease stability score
SEIKENLHRFFERWQEVLRTGDERHIRDMADPNVRLDVNGKEIHGRELFANWIREHIERVDHISVHIHDMDIYGNKAKIRGELELDQGDKKHHLDLEIVTTKVDGKWILRSVHVR	2.12
DEDREFLIEMIELFMKFLLTGDWEQFAHLADPNDRFNVNGRDNHGREVWIKEVEEMRIHSLHIEDQDAFNGVIHVDFRVEGHFDGRTHIQKVEIHIRIVNGRVKSVEHHIH	0.575
HELKEELDEKLEFILRVFRTGNEERWRRLFDPEVRIEVGDKEIHGMDEALHFASHMRVEFKEMNFEDIRIVGEWVTLHIRVRGTIVYNGKKVERSMHIIIIILKIDGKWHIHEFRIH	1.44
DEEREDVETHLRVLYDLILTGDEEDIRNLLDPHVRLDFNGKDIHGMERVSHHMRELRIERLEIKRWDVVNGRVHMDLHIVFHYGDKRRDTEVHVIMLKIDGRWHLESIHIK	2.21
SEKDDFLEQLQKLWHEILVTGDEHRLKKLADPDMRFIYGDFESIGREEFLQMMRDMLREIRITHIELRTFDAYDGQLIILTTQHVSIGDKRIELTVHLFWIKVDGKWKLRRLKFE	1.79
DEQEKELEEFLKLLLYAIWTGDEDTITELADPNVRMHIGDKLNHGWEILSDRLTEIRSDIHDFKLRHIETIGNKMTLFGDLNGQINVGDKEKRTIIHMILHVHKIDGRWLLTHIHFD	0.265
DETHELIEFLLKEMIEAWKTGNEEKIMELFDPNVRLDIGDKHYHGREEVVRAMHEYRRRLGAKHITLHDHSVVNGVIHIDTVVNQGDKEVTIHIHIHIVDGKIKRIEIRLK	2.07
SEEEEDVRKFVHMLMLSFITGDWKMLWEMLDPEVRLHVGDKTIIGRERFVSFMQRLLRELRIKDFHVDSIEIQGEKAIIHTTLHIVIGEKEEDRYVRYIVIKIDGRWLIHRVHIH	2.74
DHEEKAKKFFDDLLRAVKHNDETQLERLFDKNVRFNVGEHNFRGREEFVKMVRTMVEQVDHVTATIVSIETNGDKVNLVAQWDMSHNGNSKRIRVLVVLDDNNGRVVAREMSEK	1.98
SERDEEAKHLSEEIIRLWRTGDWKTFVRMLDPNDRMEVDGQSFHGMEDVIKFLLDFWKHLRIEDIRFRDLKYQGDKASSHTEVDVRIGDKQTRLHTEVDVLVVNGKLKSHRIKIE	1.08
DEEEDRIMKMLRLIILEIVTGDEEKFRHLFDPDARFIVGNKTYHGWEMWHEEFRHIRITEMELEHYDVINGRAHLHTRLRGKINGREIDTETRLIVVVINGKIHSIELRIH	2.18
DEEKKVAQTFLELLYRAIHTGDEDEIRRMMDPNYRMEINGKEFHGREDIVHRLVRIEKHLGFKHFHIKDMRTVGDKIDLHTEVIIGDFRWDVHIHIEKVNGRWLQTERRIE	0.521
NHLEEVKDLAIELSWKLMHTGNEELSDRNADPNTRLEFNGVEFVGREWFRQFISEMGVKHIRIDDIDMFDGRMRLDGTFNFNGQEIKVTVFTRKVDGRWRIKSLKFD	1.6
DEDDENVEQFIELFNEVMNTGDWRSLKRMIDPNARSRIGEKHLIGREMLEDFRHQADHVKIRDMKIERSHVINGRVLVDGIVHGEENFNGRRFLVNREVHLVVVKVNGRWFLRSIEFG	0.809
DEEKDIMNEWWKRIFNVFHTGDEREHDKMLDPNARFDIGDKTLHGMDDFRRFLHRADHISHFTEHHVEVQGEKLVWEGTYDGEFNGVERRFHTHEQNIIINGKVKRVFFQIR	0.834
SEFEEALKEHVKNIIRSVRTGDENELRRQLDPDAKLRINGQDYVGMEYVFHYLFEWRIHDTELKHIHVQGDKLTFNGETTGTYDGQKIHVRIRIIIWKVDGRWLSEHIDVI	1.66
SEDERDARTMTEEITHIIETGDEHRFQELADPNMRLEQGEYHRHGREQVVEFLREVLRELRLKHIHIKDIHVIDGRVIIDVWVHSQYGDKEFTVKVIWIVHKIDGRWIFHSVRIE	1.35
HESHEFVKEAFRLWVESLRTGDEKTLSRYADPHVRVTYDGREFHGRDWYVKLMDELRVNDVKLDDVNVQGEKIDIEGTIDGQVNGQDREIKVRLHAEKINGRWVNKKIQID	1.11
